Experiment: label from the status in PepcDB records
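Further: failed if final PepcDB status was selected cloned or expressed and not failed if soluble or beyond.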

Q: For “MNDITIIGASQNNLKNINITIPKHLVTVFTGRSGSGKSSLVFRTIAAESEQLLNESYSSYIQFHLNKQPKPKVNAIKNLPVAMTISQKRFNGNSRSTVGTVSDIYASVRLLWSRIGEPFVGYSDAFSFNSPNGMCETCEGLGYIEDINLNELLDWNKSLNEGAINFPSFGPDKERGKAYRDSGLFDNDKKLKAYTKEELDLFLYQEPIKLKKPPEEWRKSAKYVGLIPRFRRIFLGDKEFNKKRYAKHLKNVVENKVCPTCNGQRLNSKILSCKIMGKNISDFTQMTVKENLAFLNKLNNSTAQFIIEPLRKQLEALDYIGLSYLTLDRVTTSLSGGEAQRLKLIRHLNSSLSDLVYIIDEPSVGLHPEDIAKINEILKSLKHKGNTVLIVEHDPDVIKEADYIIDMGPSSGAQGGEITFKGTYKKLLSSDTSTGEALRIKHHLKNEIREAKSFYHLGPVTQNNLNNVTVDIPKHVLTVLTGVAGSGKSSLVKAGFAKNDNAVFMDQKAIQGSDRSNLLTYLGVFDRVRNFFSKETGLNKSMFSYNSKGACPNCGGKGYIETELAFMGEFSQTCEVCHGKRYKPEVLNATIDGYSIADFLELTVDEGIRFFDKENEIQSKLQAISKTGLNYVTLGQPLSTLSGGEIQRVKLGQYLNDDVTDSIFIFDEPTTGLHEADIPILINCFNDLIEQNNTVILIEHNLSIMCDADWIIDVGPGPGLDGGKIQFSGYPINFVKENKTLTSKHLKLYIAND”, which protein production is on record?
A: Its protein production is “failed”.

Q: With “MNDRARELASRLIRNFNEASLEHEVREPLYESAAARLGTGTVAHKLGASVDVVAPGKRSCPYHFHHAQEEMFVIIEGEGSLRVAGEMLPIKTGDVLFIPAGPEYPHQIINTSQAPLKYLSISTRETPEVCEYPDSGKYQAMVSANGARVFTANQRTTENVDYWDGEPLEHHHHHH” as the sequence, how does the protein production read?
A: Its protein production is “not failed”.

Q: With “MNDSTMKCIKLAAIVCIAIGLSACSEQKTTQEYILASKVYLQKLEYGAAIVELKNAVRQTPKDAEARYYLAKAYSEQGSYVNAEKELDKAEQFGLEMNLLLPDLVFIKSKLNKVEEVYALMENVESLNDEQYIVVLTYAGITALNNKELERAQDFIAQANTISETSLYSKMGAAYLLHAEDNFSKGIEIIDTVLGESPDFTEALLLKGHLLFSSEQFIQANGVYTKYRQLHPFANKVLFFEVNSLISAGEYEQADVKATELIKRFKNSPLAHQYKAQVEYQKKNYEDARSYAISAAQQGNEFIISKLIAGMSSYQLGDIEQAYGYLNQTEKYLPSSHPIKRILASIKIKLGYTTEGIVQLSALEGLTTSDAGLFQSSSIELIKAGDFENAIKLLDKASIIAPENASVAAQKGMLKLSQNDKTGIASLEHALNLDPNLKDVEFSLAIQYLDNGQEKKVRSIAKKWIASQDNQASGYLLLGIIHSNNNLSSKAEENYQKALSIEPENYTALFYLADIAEDADRILDAVDYYQKVVTILPEHKAAIQKLSRLQLKHNNTSNNVEFLSTLAAKHPKNITLALGLAQNLRLNNELKKAITLLESMSDWARSSQQYWAILGDNYLQAKSHTKAKECFKKVLALNPNNFVAHLRLIAISEVKRNYKQALTYTISSLERFEHNTRLLILKANFELLTGDLVSAKKTLRYLQEQKVSHHLINKFVGELALADKDYPSAIDNFHELYQKSPTALNVMLLARALSFNGQKAEAAQTIESYLSRMIKDHKVRLLLAELYMQFDEAKAIKHLEIINQSEQNNAVVLNNLAMLELKRARPEQALLYAEKAFELKSGIHQISDTYGAALVTVKNFDSAIIVLLNAINQGSEAETTYVNLTKAYLATGKTDKVKALLDSIKDRTFYSKVQAMR” as the sequence, how does the protein production read?
A: The protein production was “failed”.

Q: Which protein production does the source give for “MNEDGNDTPRPLGEVPEFRRIRSGPLPPHQNIPPRRRAPADQLPWLPSAAARRRRAALLLCGFLSAVVLLVSGSSWAVTGWLSDQLHRYDVFTGLLDENRPPASQGALNFLVIGSDDRSGLDSRQRSELGVGNVEGRRSDTMMLVHLNHQREHITVVGIPRDSWVRIPGHGPDKINAAYSLGGPQLAVQTVEAATGVRIDHYVEIDFTGFVEVVDTLGGITVCLPEAIHDEKAHLSLEAGTHRLQGTQALAFARTRKSPHGDLDRIDRQQQVLAALLDEALNAQILSDPARLAQFVETALGSITVDDTLDTAALIQLGTQLRSLGLDDVTFTQVPVDRIDFWTPSGEVAVTWHEQHATELFTAIAADRPIPQPQSAEDSALPSPDEVTVEVYNGTTIPGLGAQVRVELLESGFQVPESAGNWPQQDLAETLVRYSPEREDAATLLVESIPGARAEVDPGLGGRVQVIAGVNHTGVAVPAHAASPIAEQPVDVGGRETVHTRTAAENVCR” here?
A: Its protein production is “failed”.

Q: For “MNEELKKSIAASIENTRFDILQMIELGRELIDYPDEIHHGPVVSMGVPKDTLPKWDDIQILTAQLHKKPLIDDAPVDTQLVIGPRAQKPLVLDIPLLVGDMSYGALSKRAKQALSKGADLAGTAICSGEGGILGDELELNQSYMFELGSARNGLKKNSDLSQFSKDFKGKVKAFHFKGGQAAKTGTGGHLPGGKVTEEIAKARQIEVGKDAISPSTFADFHTPRDFADFADQIRDQMGGIPIGFKISANHIEDDMRFALDAGADYIILDGRGGSTGAAPGIFRDHISVPTIAALARARKFLDVAGHEKGAKNSVTLIITGGLRIPSDFIKALALGADGIALANSALQAIGCTGARICYSGDCPAGIATHAQHLVNKIDVDARARDLALFFNGSVHLMKIMTRACGHHSLREFSRDDICTWKAEISRLAGIPYAGVDPSNP”, which protein production is on record?
A: Its protein production is “failed”.

Q: Which protein production does the source give for “MNEFAQSPRSCVLGCSGLGYSVRGTPLLSDVDLSIATGETLAVVGPNGSGKSTLLKLLAGIQKPGSGAVRLGEQALAAMSRRDVARLLAVVEQQAETSDAVTVLDAVELGRTPWLSALEPWSANDDAIVRQALQDVDMLHMQKRAWHTLSGGERQRVHIARALAQRPQILLLDEPTNHLDIQHQLTILGLVRALPVTTVIALHDLNQALDCDRVAVMEKGRLVALGTPVEVLTPKRLLSTFGVVAHWLTDPFDGAKILRLRSR” here?
A: The protein production was “failed”.

Q: For “MNEFEDLLNSVSEVNPGDVVTAEVLTVDNGQANVVIEGTGVEGVLTLRELTNDRDADINDFVKAGDTVEVLVLRQVVGKDTDTVTFLVSKKRLEARKAWDKLVGREGEVVTVKGTRAVKGGLSVEFEGLRGFIPASMIDTRFVRNTEKFVGQEFDAKIKEVDAAENRFILSRREVIEEAAKEARAEVFSKISEGAVVTGTVARLTSFGAFIDLGGVDGLVHVTELSHERNVSPKSVVSVGEEVEVKVLSIDEEAGRVSLSLKATTPGPWDGVEQKLAQGDVVEGKVKRLTDFGAFVEVLPGIDGLVHISQISHKRVENPKDVLSVGQEVTVKVLEVNAADERVSLSIKALEERPAQAEGDNKEEKRQSRPRRPKRESRRDYELPETQTGFSMADLFGDIEL”, which protein production is on record?
A: The protein production was “failed”.

Q: For “MNEFTAVKELSEKLLEDYKTESSFFFASPTRTILAEGEFTTVKHHEIESFPELVQAVLRNAKQAGNPNPIVVGALPFDRRKEVQLIVPEYSRISERLQLDPTNHLEINRNLTFEMTPVPDHEVYMKGVKQGIEKIKDGDLKKIVLSRSLDVKSSGKIDKQKLLRELAEHNKHGYTFAVNLPKDENENSKTLIGASPELLVSRHGMQVISNPLAGSRPRSDDPVEDKRRAEELLSSPKDLHEHAVVVEAVAAALRPYCHTLYVPEKPSVIHSEAMWHLSTEVKGELKNPNTSSLELAIALHPTPAVCGTPMEEAREAIQKIEPFDREFFTGMLGWSDLNGDGEWIVTIRCAEVQENTLRLYAGAGVVAESKPEDELAETSAKFQTMLKALGLNDSSLNEK”, which protein production is on record?
A: Its protein production is “not failed”.

Q: With “MNELPIILLSPLIGGALAWLIRVKGIREAIGVVSSAIPLYFLIKLYPALEGEPIRYSLNVGGFELTLALSHISWIFAMIAAVVGLSAVLGLVSTAKDSNEWLFALMSLAGALGVFLANDFVVFFLSWEIMTFASFMMVFKYNRHASLKYFVLSIAGAYAMLLAIGIIYAKTGSLSFPEISAIFRQDAMMGMMGGGGVFTKTETLLIYALFLVAFGVKAGMFPLHVWAPDAYSETNQSYTAMFSGVLSKTGVYGFFLLYLLMYGKLAITLGNVRSAPTFGYIIAFLGGLTIMVGGILAALQEDIRKLFAYSSISQIGYILIGLGIGTPLGIAAATYHAISHALFKGLFFLIVATIIYRTGKTEFKDYGGLAEKMPITFAMAFVAILSLAGIPPMAGFASKWLIFEAVISRNLPILGAMVFFGSAIGFVYLIRFTYAVWFGQRPSDLEDVKDAPLPLAIGMGILAILNVIFGVAPGLVARELNKLFSNPPIGGTIWELDLGFGRYNGLLLSIWLVIGLIIAAILYFMGAGVRKVPVTDTYQSGNPVTMEYNLTIRRNFFLPLKEAMAFWLKMSFDRLYHDIWKAIEELADLARSYVYNGNIQAYAWYLAIILLILVAMGV” as the sequence, how does the protein production read?
A: Its protein production is “failed”.

Q: For “MNENHLLDLEEQKTDLGRVEISPEVIEVIAGIAASEVEGVATMRGNFAAGVAEKLGYKNHGKGVKVDLNDEGIIVDVSVIILYGVSVPEVAKKIQQNIKQALQTMTAIELQSINVHIVGVHFEAVDGEEETKLEHHHHHH”, which protein production is on record?
A: The protein production was “failed”.

Q: Which protein production does the source give for “MNEQRLSMRLERVATHVPAGARLADIGSDHGYLPVALLNRGAVSAAVAGEVALTPFYAAERTVRENDLDQQISVRLADGLAAIEPTDRITAISLCGMGGETIRDILESGKARLSGQERLILQPNGGEQPLRVWLMEHNYRILDEEVLRENRFDYEIIVAERTGPMIYTAEQLYFGPIQMQTRSPAFLLKWQRLLGKKHKALSNFARARKAVPEEKMQDLAQQIRWITALLN” here?
A: The protein production was “failed”.

Q: Which protein production does the source give for “MNFDRIFAWPLTSLEVFMNLALPSQYQFLPRFFRLATIAVLSNMMVPLAGLVDTAFLGHLEDIDYLAGVILGSILFDYLYRVLKFLRTSTTALTAQAVGEEDQAEVWVAGLRSALVALLLGLGILALQYPLQKFGFALLTGAPGVEQSGMDYFYGRIWGAPAVLLNFVILGWLLGQERNGLVLLISLVANFSNVGLDYLMINRWGWASAGAGWATASSQYLALALGLISIVVLAQGEKEKGEFKAAIAKLSDWGALRATIALKGNILIRFVILITTYSLFTNISSSFGTEVLAQNGLLLQIALLSQFTIQGVGMTSQTLTGNFKSKGEYQLLLPVLLTAIVTTLLMALGFAAVAIAFPETLFGLLTNHAEINDSVRQYTIWLIPLLESTALAFMLEAYFIGLKASQPLRNGVLFAFFGIYLPCLGLAIWQQSNNLLWFSLVSYMLGLVVYLGWQLLTRFSPQTLALESKQPS” here?
A: Its protein production is “failed”.

Q: Which protein production does the source give for “MNFIQSNLNNLLAIAWFALCWGGYTRYAIWKGRDTACLASVLHLYREDWMRRMLLRDNRIADASVIGNLERNASFFASSTLIILAGILTVLGASDRALSLLADLPLVQQTSQGMSEIKLLCLAMVFVYAFFTFSWCMRQYNFAAVLVGSAPMIGERLVNELERKAFASRAARVLSLAANQFNLGLRSYYFGMAMLSWFISPWLFMAMSVGVVLILYRREFHSDVLDVMVFTPTESVLSEPAKESSVVSN” here?
A: The protein production was “failed”.

Q: For “MNFISDQVKKLSSSTPEEPDHNKPVEGTETATRPATNAELMASAKVVAEAAQAAARNESDKLDKGKVAGASADILDAAEKYGKFDEKSSTGQYLDKAEKYLNDYESSHSTGAGGPPPPTSQAEPASQPEPAAKKDDEESGGGLGGYAKMAQGFLK”, which protein production is on record?
A: The protein production was “failed”.

Q: For “MNFIVIGAGNIGSGIAQNLLEDGHEVEIADKSRESLNRIRGRNPKIRTREFDVMDRSAYRMLNDYDASVSALPGSIGMQFLKNVAKMGKIVVDVSYMEEDPYDLNGIAQSAGTIIVPDMGFAPGLTNAIVGYFSADLDQIRNVKIYVGGIPEKPVPPLDYTITWSVEG”, which protein production is on record?
A: The protein production was “failed”.

Q: Which protein production does the source give for “MNFLSIFVLIPLLMLAGLWAARGIKAIRGVMVTGASALLIASVVLTFMYLGERSAGNTAEMLFRADTLWYAPLHISYSVGVDGISVAMLLLSAVIVFTGTFASWRLQPLTKEYFLWFTLLSMGVFGFFISIDLFTMFMFYEIALIPMYLLIGVWGSGRKEYAAMKLTLMLMGGSAFLLIGILGIYFGSGATTMNLLEIAQLHNIPFAQQCIWFPLTFLGFGVLGALFPFHTWSPDGHASAPTAVSMLHAGVLMKLGGYGCFRIAMYLMPEAANELSWIFLILTGISVVYGAFSACVQTDLKYINAYSSVSHCGLVLFAILMLNQTAATGAILQMLSHGLMTALFFALIGMIYGRTHTRDVRELTGLMKVMPFLSVCYVIAGLANLGLPGLSGFIAEMTIFVGSFQNNDVFHRTLTIIACSSIVITAVYILRLVGKILYGTCTNKHHLALTDATWDERVAVICLIVCVAGLGMAPFWVSHMIGESVLPVVSQLIP” here?
A: The protein production was “failed”.

From a protein production outcome set (Wang et al. 2014)
